Source: article PMC3021515

Legend:
DmE896C (Drosophila) [1] = target: DmE896C (Drosophila) (UniProt P35500)
rNav1.2 (rat) [2] = target: rNav1.2 (rat) (UniProt P04775)
rNav1.3 (rat) [3] = target: rNav1.3 (rat) (UniProt P08104)
DmD1525E (Drosophila) [4] = target: DmD1525E (Drosophila) (UniProt P35500)
DmI1529K (Drosophila) [5] = target: DmI1529K (Drosophila) (UniProt P35500)
DmNav1 (Drosophila) [6] = target: DmNav1 (Drosophila) (UniProt P35500)
DmL899C (Drosophila) [7] = target: DmL899C (Drosophila) (UniProt P35500)
mNav1.6 (mouse) [8] = target: mNav1.6 (mouse) (UniProt Q9WTU3)
DmD838C (Drosophila) [9] = target: DmD838C (Drosophila) (UniProt P35500)
DmG904N (Drosophila) [10] = target: DmG904N (Drosophila) (UniProt P35500)
DmE1523N (Drosophila) [11] = target: DmE1523N (Drosophila) (UniProt P35500)
rNav1.3 (rat) [12] = target: rNav1.3 (rat) (UniProt P08104); remark: listed apart in the source
DmI1529K (Drosophila) [13] = target: DmI1529K (Drosophila) (UniProt P35500); remark: listed apart in the source
DmM5 (Drosophila) = DmM5 (Drosophila) (UniProt P35500)
DmE896C (Drosophila) [14] = target: DmE896C (Drosophila) (UniProt P35500); remark: listed apart in the source
[15] = target: L(1.2)DmNav1 (Drosophila) (UniProt P35500)
DmI1534L (Drosophila) = DmI1534L (Drosophila) (UniProt P35500)
rNav1.2 (rat) [16] = target: rNav1.2 (rat) (UniProt P04775); remark: listed apart in the source
rNav1.3 (rat) [17] = target: rNav1.3 (rat) (UniProt P08104); remark: listed apart in the source
DmD1525E (Drosophila) [18] = target: DmD1525E (Drosophila) (UniProt P35500); remark: listed apart in the source
DmR1530Y (Drosophila) = DmR1530Y (Drosophila) (UniProt P35500)
DmI1529K (Drosophila) [19] = target: DmI1529K (Drosophila) (UniProt P35500); remark: listed apart in the source
DmNav1 (Drosophila) [20] = target: DmNav1 (Drosophila) (UniProt P35500); remark: listed apart in the source
DmT1532D (Drosophila) = DmT1532D (Drosophila) (UniProt P35500)
DmK1526L (Drosophila) = DmK1526L (Drosophila) (UniProt P35500)
DmL899C (Drosophila) [21] = target: DmL899C (Drosophila) (UniProt P35500); remark: listed apart in the source
mNav1.6 (mouse) [22] = target: mNav1.6 (mouse) (UniProt Q9WTU3); remark: listed apart in the source
DmD838C (Drosophila) [23] = target: DmD838C (Drosophila) (UniProt P35500); remark: listed apart in the source
DmG904N (Drosophila) [24] = target: DmG904N (Drosophila) (UniProt P35500); remark: listed apart in the source
L(Dm)Nav1.2 (rat) = L(Dm)Nav1.2 (rat) (UniProt P04775)
DmE1523N (Drosophila) [25] = target: DmE1523N (Drosophila) (UniProt P35500); remark: listed apart in the source
[26] = target: DmI1529K/R1530Y (Drosophila) (UniProt P35500)

## BmK IT2 (natural protein)
DmE896C (Drosophila) [1]
  EC50 of BmK IT2 from the currents it induces at −40 mV (activation threshold), two-electrode voltage clamp, Xenopus oocytes: > 35 µM
rNav1.2 (rat) [2]
  EC50 of BmK IT2 from the currents it induces at −40 mV (activation threshold), two-electrode voltage clamp, Xenopus oocytes: > 50 µM
rNav1.3 (rat) [3]
  EC50 of BmK IT2 from the currents it induces at −40 mV (activation threshold), two-electrode voltage clamp, Xenopus oocytes: > 20 µM
DmD1525E (Drosophila) [4]
  EC50 of BmK IT2 from the currents it induces at −40 mV (activation threshold), two-electrode voltage clamp, Xenopus oocytes: 3.3 µM
DmI1529K (Drosophila) [5]
  EC50 of BmK IT2 from the currents it induces at −40 mV (activation threshold), two-electrode voltage clamp, Xenopus oocytes: 15.6 µM
DmNav1 (Drosophila) [6]
  EC50 of BmK IT2 from the currents it induces at −40 mV (activation threshold), two-electrode voltage clamp, Xenopus oocytes: 2.9 µM
DmL899C (Drosophila) [7]
  EC50 of BmK IT2 from the currents it induces at −40 mV (activation threshold), two-electrode voltage clamp, Xenopus oocytes: > 35 µM
mNav1.6 (mouse) [8]
  EC50 of BmK IT2 from the currents it induces at −40 mV (activation threshold), two-electrode voltage clamp, Xenopus oocytes: > 50 µM
DmD838C (Drosophila) [9]
  EC50 of BmK IT2 from the currents it induces at −40 mV (activation threshold), two-electrode voltage clamp, Xenopus oocytes: 3.6 µM
DmG904N (Drosophila) [10]
  EC50 of BmK IT2 from the currents it induces at −40 mV (activation threshold), two-electrode voltage clamp, Xenopus oocytes: > 50 µM
DmE1523N (Drosophila) [11]
  EC50 of BmK IT2 from the currents it induces at −40 mV (activation threshold), two-electrode voltage clamp, Xenopus oocytes: 2.4 µM
rNav1.3 (rat) [12]
  shift of the half-maximal activation voltage (ΔV1/2) by 50 µM BmK IT2, two-electrode voltage clamp, Xenopus oocytes (data not shown): -4.84 mV
DmI1529K (Drosophila) [13]
  EC50 of BmK IT2 from the currents it induces at −40 mV (activation threshold), two-electrode voltage clamp, Xenopus oocytes (unit as printed in the text; the table gives µM): 0.0156 µM
DmM5 (Drosophila)
  shift of the half-maximal activation voltage (ΔV1/2) by 2 µM BmK IT2 with prepulse, two-electrode voltage clamp, Xenopus oocytes: -6.56 mV
DmE896C (Drosophila) [14]
  shift of the half-maximal activation voltage (ΔV1/2) by 2 µM BmK IT2 with prepulse, two-electrode voltage clamp, Xenopus oocytes: -1.86 mV
[15]
  shift of the half-maximal activation voltage (ΔV1/2) by 2 µM BmK IT2 with prepulse, two-electrode voltage clamp, Xenopus oocytes: -12.5 mV
DmI1534L (Drosophila)
  shift of the half-maximal activation voltage (ΔV1/2) by 2 µM BmK IT2 with prepulse, two-electrode voltage clamp, Xenopus oocytes: -7.99 mV
rNav1.2 (rat) [16]
  shift of the half-maximal activation voltage (ΔV1/2) by 2 µM BmK IT2 with prepulse, two-electrode voltage clamp, Xenopus oocytes: 1.14 mV
rNav1.3 (rat) [17]
  shift of the half-maximal activation voltage (ΔV1/2) by 2 µM BmK IT2 with prepulse, two-electrode voltage clamp, Xenopus oocytes: 0.9 mV
DmD1525E (Drosophila) [18]
  shift of the half-maximal activation voltage (ΔV1/2) by 2 µM BmK IT2 with prepulse, two-electrode voltage clamp, Xenopus oocytes: -9.73 mV
DmR1530Y (Drosophila)
  shift of the half-maximal activation voltage (ΔV1/2) by 2 µM BmK IT2 with prepulse, two-electrode voltage clamp, Xenopus oocytes: -5.11 mV
DmI1529K (Drosophila) [19]
  shift of the half-maximal activation voltage (ΔV1/2) by 2 µM BmK IT2 with prepulse, two-electrode voltage clamp, Xenopus oocytes: 0.12 mV
DmNav1 (Drosophila) [20]
  shift of the half-maximal activation voltage (ΔV1/2) by 2 µM BmK IT2 with prepulse, two-electrode voltage clamp, Xenopus oocytes: -11.9 mV
DmT1532D (Drosophila)
  shift of the half-maximal activation voltage (ΔV1/2) by 2 µM BmK IT2 with prepulse, two-electrode voltage clamp, Xenopus oocytes: -9.44 mV
DmK1526L (Drosophila)
  shift of the half-maximal activation voltage (ΔV1/2) by 2 µM BmK IT2 with prepulse, two-electrode voltage clamp, Xenopus oocytes: -12.3 mV
DmL899C (Drosophila) [21]
  shift of the half-maximal activation voltage (ΔV1/2) by 2 µM BmK IT2 with prepulse, two-electrode voltage clamp, Xenopus oocytes: -1.39 mV
mNav1.6 (mouse) [22]
  shift of the half-maximal activation voltage (ΔV1/2) by 2 µM BmK IT2 with prepulse, two-electrode voltage clamp, Xenopus oocytes: 0.32 mV
DmD838C (Drosophila) [23]
  shift of the half-maximal activation voltage (ΔV1/2) by 2 µM BmK IT2 with prepulse, two-electrode voltage clamp, Xenopus oocytes: -10.4 mV
DmG904N (Drosophila) [24]
  shift of the half-maximal activation voltage (ΔV1/2) by 2 µM BmK IT2 with prepulse, two-electrode voltage clamp, Xenopus oocytes: 0.66 mV
L(Dm)Nav1.2 (rat)
  shift of the half-maximal activation voltage (ΔV1/2) by 2 µM BmK IT2 with prepulse, two-electrode voltage clamp, Xenopus oocytes: -5.05 mV
DmE1523N (Drosophila) [25]
  shift of the half-maximal activation voltage (ΔV1/2) by 2 µM BmK IT2 with prepulse, two-electrode voltage clamp, Xenopus oocytes: -12.1 mV
[26]
  shift of the half-maximal activation voltage (ΔV1/2) by 2 µM BmK IT2 with prepulse, two-electrode voltage clamp, Xenopus oocytes: -5.06 mV
